In data set [1] the test system is male BALB/c mice. Particulars: ADR 10.5 mg/kg IV, up to 6 weeks; cited from earlier work.
Data set [2] has as its system male BALB/c mice treated with adriamycin (ADR). Nature of the data set: ADR-induced albuminuria in BALB/c mice: 24 hr urine albumin/creatinine. Type of data set: in vivo, mouse. The conditions noted are these: sRAGE 100 μg per day, mean±SE. How it is done:
(§1) Male BALB/c mice at the age of six weeks received one intravenous dose of adriamycin (ADR), 10.5 mg/kg. Immediately after injection of ADR, mice received once daily administration of murine soluble RAGE, the extracellular ligand binding domain of RAGE, 100 μg per day, beginning immediately at the time of ADR treatment, and continued until the day of sacrifice.
Twenty-four hour urine collection was obtained from each animal using metabolic cages. Urine albumin and creatinine were determined using Albuwell M and creatinine assays from Exocell (Philadelphia, Pa.) according to the manufacturer's instructions.
The key test of these concepts was the degree to which blockade of RAGE would suppress the development of albuminuria. Mice were placed in metabolic cages and 24 hr urine collected. Urine levels of albumin and creatinine were determined; results are reported as μg albumin/μg creatinine. […] At six weeks, the results were similarly striking.

The test system is the same in data set [3]. Nature of the data set: ADR-induced glomerular injury in BALB/c mice: kidney weight and mesangial morphometry (PAS staining). The class given is in vivo, mouse. Particulars: for kidney weight/body weight ratio: sRAGE 100 μg per day once daily, vs. PBS-treated mice; for mesangial area / mesangial/glomerular area: sRAGE 100 μg per day, compared with PBS treatment, PAS staining. How it is done: as §1
Dissected kidneys were fixed in buffered formalin (10%) overnight and then routinely processed for light microscopy. Fixed paraffin-embedded tissues were cut (3 μm thick) and mounted on slides coated with 3-aminopropyltriethoxy silane (Sigma) followed by incubation at 37° C. overnight. Light microscopic views after staining with periodic acid Schiff (PAS) were scanned into a computer and the quantification of areas of mesangial matrix and glomerulus was performed using a Zeiss microscope and image analysis system (MediaCybernetics). To calculate mesangial area, only nuclei-free regions were included. Forty glomeruli from each animal were selected at random on the stained sections (20 from the outer region and 20 from the inner region). Morphometry was performed by investigators blinded to the experimental protocol.
To address the concept that RAGE may be involved in the pathogenesis of ADR-mediated FSGS, a single injection of ADR, 10.5 mg/kg, to male BALB/c mice at age 6 weeks was administered. ADR-treated mice received once daily administration of murine soluble RAGE, the extracellular ligand binding domain of RAGE, 100 μg per day, beginning immediately at the time of ADR treatment, and continued until the day of sacrifice. Other ADR-treated mice received vehicle, PBS.

The values that follow come from patent publication US20070014791A1, “Rage-related methods and copositions for treating glomerular injury” (priority 2003, published 2007).

With `COc1cccc2c1C(=O)c1c(O)c3c(c(O)c1C2=O)C[C@@](O)(C(=O)CO)C[C@@H]3O[C@H]1C[C@H](N)[C@H](O)[C@H](C)O1` [ADR, adriamycin], in data set [1], the “mice that developed hematuria” value is listed as 35.7% and the “mice that developed leukocyturia” value is on record as 53.6%.

B1: sRAGE: murine soluble RAGE, the extracellular ligand binding domain of RAGE (protein, UniProt Q62151 23-340, looked up)
extracellular domain: GQNITARIGEPLVLSCKGAPKKPPQQLEWKLNTGRTEAWKVLSPQGGPWDSVARILPNGSLLLPATGIVDEGTFRCRATNRRGKEVKSNYRVRVYQIPGKPEIVDPASELTASVPNKVGTCVSEGSYPAGTLSWHLDGKLLIPDGKETLVKEETRRHPETGLFTLRSELTVIPTQGGTHPTFSCSFSLGLPRRRPLNTAPIQLRVREPGPPEGIQLLVEPEGGIVAPGGTVTLTCAISAQPPPQVHWIKDGAPLPLAPSPVLLLPEVGHEDEGTYSCVATHPSHGPQESPPVSIRVTETGDEGPAEGSVGESGLGTLA
modifications: extracellular domain
Regarding B1, the urine albumin/creatinine in data set [2] (2 weeks after ADR, p<0.05 vs. PBS-treated mice receiving ADR (809.55±365.85)) is given as 191.08±49.93 μg albumin/μg creatinine; in data set [2] (6 weeks after ADR, p<0.01 vs PBS/ADR (1,362.96±987.97)), 249.76±283.19 μg albumin/μg creatinine. The “kidney weight/body weight ratio” value in data set [3] (2 weeks after ADR 10.5 mg/kg) and in data set [3] (6 weeks after ADR 10.5 mg/kg) was “significantly decreased” in each case. In addition, the mesangial area entry in data set [3] (2 weeks after ADR) and in data set [3] (6 weeks after ADR) was “significantly decreased” in each case. In addition, the mesangial/glomerular area entry in data set [3] (2 weeks after ADR) and in data set [3] (6 weeks after ADR) was “significantly decreased” each time.
